According to patent US12502351B2, “Receptor targeting constructs and uses thereof” (Cedars-Sinai Medical Center, priority 2014, dated 2025):

Experiments:
[1] = Tissue distribution in mice with no tumors; type: in vivo, mouse; conditions: tail vein injection
[2] = repeat dosing, immune-competent mice; cited from earlier work
[3] = target: T1, mouse HER3 (Mus musculus, UniProt Q61526); experiment: Binding of HerPBK10 to 4T1 mouse mammary tumor cells; conditions: soluble HER3 peptide as competitive inhibitor
T1 construct: endogenous in cells; host or cells: 4T1 mouse mammary tumor cells
T1 sequence (Q61526 20-1339): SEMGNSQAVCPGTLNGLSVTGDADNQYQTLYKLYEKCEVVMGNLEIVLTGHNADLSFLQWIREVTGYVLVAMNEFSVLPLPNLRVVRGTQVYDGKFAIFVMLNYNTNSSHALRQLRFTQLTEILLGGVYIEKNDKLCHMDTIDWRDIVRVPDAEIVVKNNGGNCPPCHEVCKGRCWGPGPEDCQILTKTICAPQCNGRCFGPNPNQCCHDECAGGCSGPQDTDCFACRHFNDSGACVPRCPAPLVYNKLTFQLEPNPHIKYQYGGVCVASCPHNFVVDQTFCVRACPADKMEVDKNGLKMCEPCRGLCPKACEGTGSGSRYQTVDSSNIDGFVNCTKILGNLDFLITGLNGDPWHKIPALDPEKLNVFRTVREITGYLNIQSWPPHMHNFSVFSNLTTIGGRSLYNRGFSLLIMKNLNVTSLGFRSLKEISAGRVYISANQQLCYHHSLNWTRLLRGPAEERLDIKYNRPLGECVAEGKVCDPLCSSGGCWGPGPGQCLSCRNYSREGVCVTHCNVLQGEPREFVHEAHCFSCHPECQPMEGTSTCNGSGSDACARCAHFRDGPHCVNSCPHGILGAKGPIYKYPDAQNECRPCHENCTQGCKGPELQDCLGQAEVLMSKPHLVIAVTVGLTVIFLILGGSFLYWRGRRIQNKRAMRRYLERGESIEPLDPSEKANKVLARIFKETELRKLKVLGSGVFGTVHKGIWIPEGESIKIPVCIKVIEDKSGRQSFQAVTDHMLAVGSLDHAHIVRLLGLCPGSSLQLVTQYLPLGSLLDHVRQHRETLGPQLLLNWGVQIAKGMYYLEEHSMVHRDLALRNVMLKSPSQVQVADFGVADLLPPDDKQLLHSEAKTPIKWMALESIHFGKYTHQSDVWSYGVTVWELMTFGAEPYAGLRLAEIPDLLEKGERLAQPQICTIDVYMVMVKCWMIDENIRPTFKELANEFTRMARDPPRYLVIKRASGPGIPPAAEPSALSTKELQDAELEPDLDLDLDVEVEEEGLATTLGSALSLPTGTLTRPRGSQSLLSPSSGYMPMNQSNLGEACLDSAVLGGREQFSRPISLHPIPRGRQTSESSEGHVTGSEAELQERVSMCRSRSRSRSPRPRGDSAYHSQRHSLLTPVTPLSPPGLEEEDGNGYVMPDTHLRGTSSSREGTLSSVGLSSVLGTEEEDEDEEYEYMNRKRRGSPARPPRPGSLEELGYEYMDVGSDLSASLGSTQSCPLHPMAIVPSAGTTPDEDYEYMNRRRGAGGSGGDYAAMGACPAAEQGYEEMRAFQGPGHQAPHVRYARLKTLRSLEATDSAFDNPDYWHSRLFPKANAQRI
Excerpt: FIGS. 13A-13C show the results that HerPBK10 binds to mouse HER3. […] Blue residues indicate amino acid differences. […] N=3. *, p<0.05 compared to HerPBK10 alone

[4] = target: T2, HER3 (Homo sapiens, UniProt P21860); conditions: cells in culture; cited from earlier work
T2 construct: endogenous in cells
T2 sequence (P21860 20-1342): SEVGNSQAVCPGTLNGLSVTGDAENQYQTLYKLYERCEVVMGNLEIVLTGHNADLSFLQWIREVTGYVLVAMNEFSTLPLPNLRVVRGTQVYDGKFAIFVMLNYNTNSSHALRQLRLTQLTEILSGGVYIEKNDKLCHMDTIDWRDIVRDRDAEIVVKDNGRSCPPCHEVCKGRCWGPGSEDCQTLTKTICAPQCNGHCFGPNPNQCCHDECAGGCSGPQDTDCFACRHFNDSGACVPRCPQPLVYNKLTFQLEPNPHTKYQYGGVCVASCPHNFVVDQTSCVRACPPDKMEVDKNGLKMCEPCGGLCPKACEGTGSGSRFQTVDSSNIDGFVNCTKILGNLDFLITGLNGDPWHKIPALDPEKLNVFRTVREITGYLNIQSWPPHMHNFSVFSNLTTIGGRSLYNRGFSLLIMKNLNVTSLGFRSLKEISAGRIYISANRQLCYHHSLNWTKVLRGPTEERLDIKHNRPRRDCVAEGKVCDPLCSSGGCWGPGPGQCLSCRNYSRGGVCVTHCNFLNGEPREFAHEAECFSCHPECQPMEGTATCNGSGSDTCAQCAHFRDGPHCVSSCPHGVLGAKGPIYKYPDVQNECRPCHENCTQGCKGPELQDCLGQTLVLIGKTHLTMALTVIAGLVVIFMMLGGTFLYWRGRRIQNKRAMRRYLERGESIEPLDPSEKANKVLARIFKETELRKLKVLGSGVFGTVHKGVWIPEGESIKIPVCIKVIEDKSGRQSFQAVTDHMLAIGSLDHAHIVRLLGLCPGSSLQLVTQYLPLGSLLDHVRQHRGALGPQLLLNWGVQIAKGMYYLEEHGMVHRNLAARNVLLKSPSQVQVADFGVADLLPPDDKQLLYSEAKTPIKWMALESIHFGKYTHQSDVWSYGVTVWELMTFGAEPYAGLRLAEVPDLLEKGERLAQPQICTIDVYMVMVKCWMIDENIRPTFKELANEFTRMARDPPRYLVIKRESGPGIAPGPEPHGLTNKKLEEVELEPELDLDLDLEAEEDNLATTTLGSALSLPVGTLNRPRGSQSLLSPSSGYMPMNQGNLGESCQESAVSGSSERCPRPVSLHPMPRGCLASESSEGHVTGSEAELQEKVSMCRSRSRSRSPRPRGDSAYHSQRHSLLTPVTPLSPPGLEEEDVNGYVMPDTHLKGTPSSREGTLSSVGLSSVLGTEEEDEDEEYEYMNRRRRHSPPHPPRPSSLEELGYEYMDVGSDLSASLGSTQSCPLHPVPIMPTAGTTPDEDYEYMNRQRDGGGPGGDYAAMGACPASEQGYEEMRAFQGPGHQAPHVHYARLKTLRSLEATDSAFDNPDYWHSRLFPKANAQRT

[5] = tested on: human cardiosphere-derived cells (CDCs); experiment: Human CDC viability; conditions: 2 or 5 days exposure
[6] = tested on: MDA-MB-435 cells; experiment: Cy3-labeled oligonucleotide delivery, confocal immunofluorescence; type: cell-based, human; conditions: Cy3-labeled oligonucleotide 50 pmol, 1 h at 37° C.
Experimental: HerPBK10 transports a labeled oligonucleotide in MDA-MB-435 cells. To determine whether HerPBK10 can mediate single-stranded oligonucleotide delivery, a Cy3-labeled oligonucleotide (50 pmol) was incubated with HerPBK10 (5 μg) or Lipofectamine 2000 (Invitrogen, Carlsbad, CA, USA), a commercial transfection reagent as a comparative control, in 0.1 M HEPES/Optimem I (Invitrogen; Carlsbad, CA, USA) for 20 minutes at RT. The resulting mixture was added to MDA-MB-435 cells, which express HER, and incubated for 1 h at 37° C. Cells were fixed in 4% PFA for 15′ at RT and processed for immunofluorescence against HerPBK10. Cells were counterstained with DAPI to identify nuclei. Images were acquired using a Leica SP2 laser scanning confocal microscope.

[7] = target: T2, HER3; experiment: ELISA of HerPBK10 binding to HER2+ cells with competitive inhibitors or sera
Excerpt: (§1) FIGS. 12A-12C is a group of graphs showing HerPBK10 binds to HER3 and is not inhibited by patient serum. […] Un: no HerPBK10. […] Control samples were bound in bovine serum and receptor-binding verified by competitive inhibition with recombinant heregulin ligand (+Her). N=3. *, p<0.05 compared to control (−Her: no competitive inhibitor).

[8] = tested on: HER2+ tumors; conditions: cited from earlier work
[9] = target: T3, HER3 (human ErbB3 extracellular domain) (Homo sapiens, UniProt P21860); experiment: ELISA of HerPBK10 binding to immobilized HER3
T3 construct: an immobilized peptide containing the extracellular domain of human HER3; purchased Prospec
T3 sequence (P21860 20-643 limits assumed): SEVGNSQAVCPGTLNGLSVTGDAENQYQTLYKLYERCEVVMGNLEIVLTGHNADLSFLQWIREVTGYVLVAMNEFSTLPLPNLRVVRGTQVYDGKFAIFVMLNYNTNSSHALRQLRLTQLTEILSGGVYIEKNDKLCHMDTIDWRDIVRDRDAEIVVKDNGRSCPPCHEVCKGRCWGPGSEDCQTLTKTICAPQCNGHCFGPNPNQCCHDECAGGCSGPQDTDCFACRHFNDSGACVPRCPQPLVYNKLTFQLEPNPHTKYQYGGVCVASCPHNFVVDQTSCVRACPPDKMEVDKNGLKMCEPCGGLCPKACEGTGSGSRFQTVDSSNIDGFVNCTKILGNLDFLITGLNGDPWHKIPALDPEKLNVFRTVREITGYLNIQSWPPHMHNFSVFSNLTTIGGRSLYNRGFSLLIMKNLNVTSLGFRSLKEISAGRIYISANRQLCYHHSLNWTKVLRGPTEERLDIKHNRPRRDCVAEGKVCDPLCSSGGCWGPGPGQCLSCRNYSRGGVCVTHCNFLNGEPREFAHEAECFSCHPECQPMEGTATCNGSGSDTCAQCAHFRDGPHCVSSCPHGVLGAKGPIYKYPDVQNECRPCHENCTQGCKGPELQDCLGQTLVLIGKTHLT
Excerpt: as §1

Molecule | brain delivery in mice without tumors [1] | neutralizing antibody formation [2] | binding to mouse HER3+ cells with HER3 peptide [3] | receptor binding with polyclonal antibodies against whole adenovirus [4] | CDC viability [5] | oligonucleotide transport into cells [6] | binding with HER4 peptide or betacellulin ([7]; betacellulin 10 μg/mL) | binding to cellular HER3 with pertuzumab (Pz) ([7]; heterodimerization-inhibiting antibody) | binding to HER2+ cells in patient serum ([7]; sera from HER2+ patients and age-matched controls) | binding to human HER3+ cells with HER3 peptide ([7]; soluble HER3 peptide as competitive inhibitor) | dose for tumor growth ablation compared to doxorubicin ([8]; HER2+ tumors in mice) [× lower dose] | effect on heart and liver tissue ([8]; mouse, in vivo) | immunogenicity ([8]; mouse, in vivo) | binding to immobilized HER3 [9] | binding to immobilized HER3 with HER3 block ([9]; pre-incubation with soluble HER3 peptide)
PBK10: recombinant protein derived from the adenovirus capsid penton base with decalysine | no detectable brain delivery |  |  |  |  |  |  |  |  |  |  |  |  |  | 
HerPBK10: receptor binding region of heregulin-α (aa 35-239) fused to adenovirus penton base with decalysine tail (protein) LPPRLKEMKSQESAAGSKLVLRCETSSEYSSLRFKWFKNGNELNRKNKPQNIKIQKKPGKSELRINKASLADSGEYMCKVISKLGNDSASANITIVESNEIITGMPASTEGAYVSSESPIRISVSTEGANTSSSTSTSTTGTSHLVKCAEKEKTFCVNGGECFMVKDLSNPSRYLCKCQPGFTGARCTENVPMKVQNQEKAEELYMRRAAMYEEGPPPSYESVVSAAPVAAALGSPFDAPLDPPFVPPRYLRPTGGRNSIRYSELAPLFDTTRVYLVDNKSTDVASLNYQNDHSNFLTTVIQNNDYSPGEASTQTINLDDRSHWGGDLKTILHTNMPNVNEFMFTNKFKARVMVSRLPTKDNQVELKYEWVEFTLPEGNYSETMTIDLMNNAIVEHYLKVGRQNGVLESDIGVKFDTRNFRLGFDPVTGLVMPGVYTNEAFHPDIILLPGCGVDFTHSRLSNLLGIRKRQPFQEGFRITYDDLEGGNIPALLDVDAYQASLKDDTEQGGGGAGGSNSSGSGAEENSNAAAAAMQPVEDMNDHAIRGDTFATRAEEKRAEAEAAAEAAAPAAQPEVEKPQKKPVIKPLTEDSKKRSYNLISNDSTFTQYRSWYLAYNYGDPQTGIRSWTLLCTPDVTCGSEQVYWSLPDMMQDPVTFRSTRQISNFPVVGAELLPVHSKSFYNDQAVYSQLIRQFTSLTHVFNRFPENQILARPPAPTITTVSENVPALTDHGTLPLRNSIGGVQRVTITDARRRTCPYVYKALGIVSPRVLSSRTFKKKKKKKKKK | show brain localization | do not produce detectable neutralizing antibody formation against the protein | inhibits binding | do not prevent receptor binding to cells in culture | no toxic or growth promoting effect on tumor cells or CDCs | colocalized with the oligonucleotide during binding and uptake | not inhibited by a HER4 peptide or betacellulin | does not prevent HerPBK10 binding to cellular HER3 | do not prevent HerPBK10 binding to HER2+ cells in culture | inhibits binding | > 10 | sparing heart and liver tissue | no detectable immunogenicity | bind to an immobilized peptide containing the extracellular domain of human HER3 | inhibited by pre-adsorption of HerPBK10 with free HER3 peptide
